From PMC2990333

Columns and labels:
[1] = molecular target: OBP48 expressed in lepidopteran cells (Anopheles gambiae); assay: co-IP + cross-linking; OBPs expressed in lepidopteran cells, examined for in vitro interactions in the absence of exogenously added ligands; chemical cross-linking
[2] = molecular target: 25kD protein (immunoreactive P29 form of Drosophila) (Drosophila melanogaster); assay: not stated; dimerisation of the 25kD protein under in vitro conditions
[3] = molecular target: Aedes aegypti sterol carrier protein-2-like-2 (SCP-2-L2) (Aedes aegypti); assay: crystal structure; ligand-bound X-ray structure at 1.7-angstrom resolution, with bound fatty acid

“OBP48 expressed in lepidopteran cells (natural protein)” was tested, and the stoichiometry N [1] was 2.
In the case of “25kD protein (immunoreactive P29 form of Drosophila) (natural protein)”, the stoichiometry N [2] is reported as 2.
In the case of “Aedes aegypti sterol carrier protein-2-like-2 (SCP-2-L2) (natural protein)”, the stoichiometry N [3] is reported as 2.
